US20040248211A1, “ICAM-related protein” (priority 1992, published 2004)
Positions count from the first letter of the chain named. Names and notes keep the numbering of the source.

How the values were obtained:
[1] = target: T1, soluble baculovirus produced human ICAM-R (Homo sapiens, UniProt P32942); assay: ELISA binding of recombinant ICR-1.1 antibodies
T1 sequence (P32942 30-485 limits assumed): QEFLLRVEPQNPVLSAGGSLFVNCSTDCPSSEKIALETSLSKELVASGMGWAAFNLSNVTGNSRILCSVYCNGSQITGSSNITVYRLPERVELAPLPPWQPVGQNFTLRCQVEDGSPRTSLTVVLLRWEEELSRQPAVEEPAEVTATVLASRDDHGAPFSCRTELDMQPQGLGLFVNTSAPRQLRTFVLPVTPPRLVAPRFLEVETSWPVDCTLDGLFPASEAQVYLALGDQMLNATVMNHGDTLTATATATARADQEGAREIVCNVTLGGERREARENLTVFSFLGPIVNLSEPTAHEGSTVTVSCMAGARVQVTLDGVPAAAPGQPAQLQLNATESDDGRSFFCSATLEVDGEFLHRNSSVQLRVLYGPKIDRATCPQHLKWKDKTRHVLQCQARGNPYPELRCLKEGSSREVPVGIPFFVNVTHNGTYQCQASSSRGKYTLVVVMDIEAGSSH

[2] = tested on: T cells; assay: IL-2 production in response to anti-CD3 and ICAM-R proteins; format: cell-based, human; conditions: in comparison to the HSA control
[3] = tested on: Human peripheral blood lymphocytes; assay: Costimulation of lymphocytes by soluble ICAM-R; format: cell-based
Experimental: shICAM-R (Example 9) was assayed for the ability to costimulate human lymphocyte activation. Human peripheral blood lymphocytes (PBL) were obtained by Ficoll-Hypaque centrifugation and 2×10^5 cells per well were incubated in the presence of either media, plate bound shICAM-R, plate bound anti-CD3 (OKT3) or a combination of plate bound anti-CD3 and shICAM-R. At 17 hours and 4 days after initiation of culture cells were removed, stained with monoclonal antibodies to human lymphocyte activation antigens and analyzed by flow cytometry.

[4] = tested on: SKW3 cells; assay: Adhesion of PMA-activated SKW3 cells to plate-bound protein; format: cell-based, human; conditions: PMA-treated cells
Experimental: The partially purified shICAM-R protein was assayed for binding to SKW3 cells that were pretreated with phorbol ester as described in Example 7 to activate LFA-1-dependent adhesion. The ICAM-R protein was coated onto 96-well Immulon 4 (Dynatech) plates after adjusting the lectin eluate to 25 mM carbonate pH 9.6 and incubated overnight at 4° C. The plates were washed two times with PBS, blocked for 30 minutes at 37° C. with 200 ul/well PBS, 1% BSA, and washed again with PBS before adding cells. SKW3 cells were washed in serum-free RPMI (Gibco), labelled with Calcein-AM (Molecular Probes), and stimulated with PMA. Cells were then added to the plates and incubated for 1 hour at 37° C. The plates were inverted in prewarmed PBS, 1% BSA and were incubated for 30 minutes. The plates were then removed and half of the contents of each well was aspriated. The plates were then scanned with a fluorescence microscope and an automated fluorescence reader.
Peak fractions from wtHis6, E37His6 and mock transfectants were concentrated about 6.5 fold using Centricon 30 (Amicon) centrifugation units. The resultant concentrates were adjusted to equal vols. (0.34 ml) using PBS-D. Control soluble ICAM-R (15 ug/ml) (Example 9) in carbonate buffer pH 9.6 or in buffer D with 40 mM imidazole were made up. […]

[5] = target: VLA-4 (Homo sapiens, UniProt P05556+P13612); assay: Integrin binding of ICAM-R/IgG variants
[6] = target: LFA-1 (Homo sapiens, UniProt P05107+P20701); assay: Integrin binding of ICAM-R/IgG variants
[7] = tested on: T cells; assay: T-cell proliferation in response to CD3 mAb with recombinant ICAM-R; format: cell-based, human; conditions: in comparison to the HSA control
Experimental: T cell costimulation by recombinant ICAM-R and CD3 antibody in the presence of monoclonal antibodies which block ICAM-R adhesion to VLA-4 was measured (Example 21F). The monoclonal antibodies tested were specific for domain 3 of ICAM-R or the α4 subunit of VLA-4.
Both variants were tested for effects on T-cell proliferation in response to CD3 mAb. […] Similar levels of costimulation were induced by the LFA-1 binding D231H-Ig or wild-type ICAM-R/Ig chimera which binds both LFA-1 and VLA-4.

[8] = tested on: JY cells (LFA-1) binding to ICAM-R/IgG; assay: JY cell binding to plate-bound ICAM-R/IgG chimeras; format: cell-based, human
Experimental: The binding of the lymphoblastoid cell line JY, which expresses LFA-1, to wild type ICAM-R/IgG chimera was examined in the presence and absence of LFA-1 specific antibodies or antibodies specific for either domain 1 or 2 of ICAM-R. ICAM-R chimeras were diluted to 10 μg/ml in 0.1M Na-carbonate/bicarbonate buffer pH 9.6 and used to coat triplicate wells (50 μl/well) of an Immulon 4 96-well plate (Dynatech) overnight at 4° C. Wells were washed three times in PBS and blocked with 1% BSA (in PBS) for 1 hour at 37° C. JY cells were labeled with the fluorescent dye Calcein (Moleculat Probes, Eugene, Oreg.) at 8 μg/ml at 37° C. in serum free RPMI for 20 minutes. Cells were washed with RPMI and resuspended in binding buffer (0.2% HSA in RPMI. Approximately 1×10^5 cells were added to each well containing the binding buffer with or without antibody (20 μg/ml of ICR-2.1, ICR-1.1, ICR-3.1, ICR-5.1, ICR-7.1, ICR-8.1, ICR-4.2, ICR-6.2, ICR-9.2, TS1/22 or 60.3) so that the final volume was 0.35 ml. Plates were incubated at 37° C. in the dark for 45 minutes and input fluorescence was quantitated with a fluorescence reader (Millipore) in a 96-well format. Unbound cells were removed by inverting the plate in 0.1% BSA in PBS for 20 minutes. Bound cells were quantitated by measuring the remaining fluorescence and presented as percent input minus background binding to wells coated with BSA alone.

Sequence of LFA-1 (P20701 26-1170): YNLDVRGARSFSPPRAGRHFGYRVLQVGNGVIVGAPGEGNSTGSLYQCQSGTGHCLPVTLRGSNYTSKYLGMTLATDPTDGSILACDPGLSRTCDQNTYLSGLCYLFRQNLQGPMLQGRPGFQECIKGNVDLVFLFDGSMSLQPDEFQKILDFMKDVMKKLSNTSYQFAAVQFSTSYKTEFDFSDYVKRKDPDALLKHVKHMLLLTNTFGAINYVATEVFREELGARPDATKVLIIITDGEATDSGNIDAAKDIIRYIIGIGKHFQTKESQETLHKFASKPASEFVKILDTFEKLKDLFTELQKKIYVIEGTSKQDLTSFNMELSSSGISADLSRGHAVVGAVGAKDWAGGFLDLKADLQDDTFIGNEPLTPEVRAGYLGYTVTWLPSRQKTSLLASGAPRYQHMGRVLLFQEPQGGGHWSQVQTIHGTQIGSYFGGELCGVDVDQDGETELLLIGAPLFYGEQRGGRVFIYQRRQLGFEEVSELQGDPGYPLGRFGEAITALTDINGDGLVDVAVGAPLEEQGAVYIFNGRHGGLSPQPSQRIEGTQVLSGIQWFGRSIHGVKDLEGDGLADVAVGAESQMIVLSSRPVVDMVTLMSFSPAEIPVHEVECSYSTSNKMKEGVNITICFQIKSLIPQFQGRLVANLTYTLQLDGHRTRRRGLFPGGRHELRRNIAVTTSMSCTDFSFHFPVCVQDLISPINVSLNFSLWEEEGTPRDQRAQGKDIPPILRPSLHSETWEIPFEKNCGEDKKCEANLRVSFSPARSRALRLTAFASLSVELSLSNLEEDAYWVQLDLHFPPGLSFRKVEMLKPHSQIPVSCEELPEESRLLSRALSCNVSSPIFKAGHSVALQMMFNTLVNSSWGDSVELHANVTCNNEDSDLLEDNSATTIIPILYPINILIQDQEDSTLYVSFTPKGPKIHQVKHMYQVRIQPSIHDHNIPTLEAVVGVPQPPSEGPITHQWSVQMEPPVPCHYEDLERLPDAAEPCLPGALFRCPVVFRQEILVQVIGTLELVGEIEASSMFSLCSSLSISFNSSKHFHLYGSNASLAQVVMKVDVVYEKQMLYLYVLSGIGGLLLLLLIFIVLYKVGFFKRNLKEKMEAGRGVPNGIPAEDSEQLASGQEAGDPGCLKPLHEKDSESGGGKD
Sequence of LFA-1 (P05107 23-769): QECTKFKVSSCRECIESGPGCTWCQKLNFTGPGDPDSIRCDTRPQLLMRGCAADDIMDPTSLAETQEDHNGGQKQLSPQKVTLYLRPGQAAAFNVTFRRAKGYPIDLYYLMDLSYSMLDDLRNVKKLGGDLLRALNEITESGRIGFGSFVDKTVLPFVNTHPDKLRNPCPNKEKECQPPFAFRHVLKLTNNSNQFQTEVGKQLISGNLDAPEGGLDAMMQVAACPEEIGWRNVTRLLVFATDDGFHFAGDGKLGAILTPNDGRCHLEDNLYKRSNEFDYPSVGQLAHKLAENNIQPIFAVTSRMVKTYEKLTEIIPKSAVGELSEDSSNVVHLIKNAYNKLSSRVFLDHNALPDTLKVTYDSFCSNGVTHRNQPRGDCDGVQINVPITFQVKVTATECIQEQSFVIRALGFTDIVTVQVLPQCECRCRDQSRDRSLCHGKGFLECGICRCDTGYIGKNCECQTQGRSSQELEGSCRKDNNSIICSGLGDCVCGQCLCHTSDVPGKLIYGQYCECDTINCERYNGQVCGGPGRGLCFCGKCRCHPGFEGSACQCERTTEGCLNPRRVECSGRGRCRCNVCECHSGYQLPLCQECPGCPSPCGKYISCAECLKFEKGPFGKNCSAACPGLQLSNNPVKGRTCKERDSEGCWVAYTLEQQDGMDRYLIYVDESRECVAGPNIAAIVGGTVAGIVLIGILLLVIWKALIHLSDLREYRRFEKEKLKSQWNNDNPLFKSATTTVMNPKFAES

B1: HuVH: humanized ICR-1.1 heavy chain V region (Met48) (antibody, V domains shown)
VH: GVQSQVQLVQSGAEVKKPGASVKVSCKASGYTFTVYWMHWVRQAPGQGLEWMGYINPNTDYTEYNQRFQKRVTITADTSTSTAYMELSSLRSEDTAVYYCARWGGNSYGLDYWGQGTLVTVSS
deficit in binding compared with murine progenitor chain, ICR-1.1 versions [1]: 2-3 fold

B2: shICAM-R: soluble human ICAM-R truncated at amino acid 457, baculovirus expressed (protein)
chain: T1 sequence (P32942 30-485 limits assumed) with R86G, D114G, P328T, G453F
IL-2 production in response to CD3 mAb [2]: enhanced IL-2 production | expression of activation antigens ICAM-1, IL-2 receptor, transferrin receptor ([3]; 4 days, plate bound anti-CD3 0.5 ug/well and protein 100 ng/well, versus anti-CD3 alone): elevated levels of the activation antigens ICAM-1, IL-2 receptor and transferrin receptor | expression of activation antigens ICAM-1, IL-2 receptor, transferrin receptor ([3]; protein 100 ng/well alone, versus media alone): no increased levels of these activation antigens | adhesion of SKW3 cells to plate bound protein [4]: demonstrated adhesion of phorbol ester-activated lymphocytes

B3: E37T-Ig: ICAM-R/IgG variant which binds VLA-4 but not LFA-1 (protein)
chain: T1 sequence (P32942 30-485 limits assumed) with E37A, T38S, R86G, D114G, P328T, G453F
modifications: left off: a dimerising Fc or GST
IL-2 production in response to CD3 mAb [2]: inhibited IL-2 production | VLA-4 binding [5]: binds VLA-4 | LFA-1 binding [6]: not LFA-1 | T-cell proliferation in response to CD3 mAb [7]: markedly inhibited T-cell proliferation

B4: T38/A: ICAM-R/IgG chimera, Thr38 changed to Ala (protein)
chain: T1 sequence (P32942 30-485 limits assumed) with T38A, R86G, D114G, P328T, G453F
modifications: left off: a dimerising Fc or GST
notes: ICAM-R/IgG chimera, Thr38 changed to Ala
reduction in JY cell adhesion to variant ICAM-R/IgG chimera [8]: 70-80%

B5: L121/P: ICAM-R/IgG chimera with domain 2 mutation L121/P (protein, UniProt P32942 30-485, looked up, variant L121P)
extracellular domain: T1 sequence (P32942 30-485 limits assumed) with L121P
modifications: extracellular domain fused to IgG Fc
notes: ICAM-R/IgG chimera with domain 2 mutation L121/P
LFA-1 mediated JY cell adhesion to variant ICAM-R/IgG chimera ([8]; chimera coated at 10 μg/ml): wild type levels of LFA-1 mediated binding

B6: D231H-Ig: ICAM-R/IgG variant with reduced VLA-4 binding, full LFA-1 binding (protein)
chain: T1 sequence (P32942 30-485 limits assumed) with R86G, D114G, D231H, P328T, G453F
modifications: left off: a dimerising Fc or GST
IL-2 production in response to CD3 mAb [2]: to a lesser extent | VLA-4 binding [5]: reduced VLA-4 binding capacity | LFA-1 binding [6]: retaining full LFA-1 binding capacity | T-cell proliferation in response to CD3 mAb [7]: enhanced CD3 mAb driven T-cell proliferation

B7: HuVK: humanized ICR-1.1 kappa chain V region (antibody, V domains shown)
VL: GARCDIQMTQSPSSLSASVGDRVTITCSASSSVSYIYWYQQKPGKAPKLLIYLTSNLASGVPSRFSGSGSGTDFTLTISSLQPEDFATYYCQQWKSIPLTFGQGTKLEIK
deficit in binding compared with murine progenitor chain, ICR-1.1 versions [1]: 2 fold

B8: wtHis6: wild type histidine tagged soluble ICAM-R extracellular domain (protein)
chain: QEFLLRVEPQNPVLSAGGSLFVNCSTDCPSSEKIALETSLSKELVASGMGWAAFNLSNVTGNSRILCSVYCNGSQITGSSNITVYGLPERVELAPLPPWQPVGQNFTLRCQVEGGSPRTSLTVVLLRWEEELSRQPAVEEPAEVTATVLASRDDHGAPFSCRTELDMQPQGLGLFVNTSAPRQLRTFVLPVTPPRLVAPRFLEVETSWPVDCTLDGLFPASEAQVYLALGDQMLNATVMNHGDTLTATATATARADQEGAREIVCNVTLGGERREARENLTVFSFLGPIVNLSEPTAHEGSTVTVSCMAGARVQVTLDGVPAAAPGQTAQLQLNATESDDGRSFFCSATLEVDGEFLHRNSSVQLRVLYGPKIDRATCPQHLKWKDKTRHVLQCQARGNPYPELRCLKEGSSREVPVGIPFFVNVTHNGTYQCQASSSRGKYTLVVVMDIEAFSSGPGHHHHHH
adhesion of SKW3 cells to plate bound protein [4]: functions as an adhesive ligand for SKW3 cells
